Laboratory results: US20240000930A1

How the values were obtained:
[1] = biological target: carboxymethyl lysine conjugated to keyhole limpet hemocyanin (CML-KLH); assay: direct binding ELISA, CML-KLH coat 1 ug/mL, antibody at 16.67 ug/mL
[2] = biological target: carboxymethyl lysine conjugated to keyhole limpet hemocyanin (CML-KLH); assay: direct binding ELISA, CML-KLH coat 1 ug/mL, antibody at 5.56 ug/mL
[3] = biological target: carboxymethyl lysine conjugated to keyhole limpet hemocyanin (CML-KLH); assay: direct binding ELISA, CML-KLH coat 1 ug/mL, antibody at 1.85 ug/mL
[4] = biological target: carboxymethyl lysine conjugated to keyhole limpet hemocyanin (CML-KLH); assay: direct binding ELISA, CML-KLH coat 1 ug/mL, antibody at 0.21 ug/mL
[5] = biological target: carboxymethyl lysine conjugated to keyhole limpet hemocyanin (CML-KLH); assay: direct binding ELISA, CML-KLH coat 1 ug/mL, antibody at 0.07 ug/mL
[6] = biological target: carboxymethyl lysine conjugated to keyhole limpet hemocyanin (CML-KLH); assay: direct binding ELISA, CML-KLH coat 1 ug/mL, antibody at 50 ug/mL
[7] = biological target: carboxymethyl lysine conjugated to keyhole limpet hemocyanin (CML-KLH); assay: direct binding ELISA, CML-KLH coat 1 ug/mL, antibody at 0.62 ug/mL

## anti-carboxymethyl lysine (CML) antibody (R&D Systems, MAB3247)
[1]
  OD450 absorbance: 0.312 OD450
[2]
  OD450 absorbance: 0.165 OD450
[3]
  OD450 absorbance: 0.092 OD450
[4]
  OD450 absorbance: 0.075 OD450
[5]
  OD450 absorbance: 0.086 OD450
[6]
  OD450 absorbance: 0.462 OD450
[7]
  OD450 absorbance: 0.083 OD450
